Eight molecules from patent publication US11499162B2, “Plants having increased tolerance to herbicides” (BASF SE, priority 2016, dated 2022) can be followed below.

B1: D248EE251D: mutated TriA variant of SEQ ID NO: 2 (protein)
chain: MQTLSIQHGTLVTMDQYRRVLGDSWVHVQDGRIVALGVHAESVPPPADRVIDARGKVVLPGFINAHTHVNQILLRGGPSHGRQLYDWLFNVLYPGQKAMRPEDVAVAVRLYCAEAVRSGITTINDNADSAIYPGNIEAAMAVYGEVGVRVVYARMFFDRMDGRIQGYVDALKARSPQVELCSIMEETAVAKDRITALSDQYHGTAGGRISVWPAPAITPAVTVEGMRWAQAFARDRAVMWTLHMAESEHDDRLHWMSPAEYMECYGLLDERLQVAHCVYFDRKDVRLLHRHNVKVASQVVSNAYLGSGVAPVPEMVERGMAVGIGTDDGNCNDSVNMIGDMKFMAHIHRAVHRDADVLTPEKILEMATIDGARSLGMDHEIGSIETGKRADLILLDLRHPQTTPHHHLAATIVFQAYGNEVDTVLIDGNVVMENRRLSFLPPERELAFLEEAQSRATAILQRANMVANPAWRSL
modifications: Pseudomonas
B2: Q298C: mutated TriA variant of SEQ ID NO: 2 (protein)
chain: MQTLSIQHGTLVTMDQYRRVLGDSWVHVQDGRIVALGVHAESVPPPADRVIDARGKVVLPGFINAHTHVNQILLRGGPSHGRQLYDWLFNVLYPGQKAMRPEDVAVAVRLYCAEAVRSGITTINDNADSAIYPGNIEAAMAVYGEVGVRVVYARMFFDRMDGRIQGYVDALKARSPQVELCSIMEETAVAKDRITALSDQYHGTAGGRISVWPAPAITPAVTVEGMRWAQAFARDRAVMWTLHMAESDHDERLHWMSPAEYMECYGLLDERLQVAHCVYFDRKDVRLLHRHNVKVASCVVSNAYLGSGVAPVPEMVERGMAVGIGTDDGNCNDSVNMIGDMKFMAHIHRAVHRDADVLTPEKILEMATIDGARSLGMDHEIGSIETGKRADLILLDLRHPQTTPHHHLAATIVFQAYGNEVDTVLIDGNVVMENRRLSFLPPERELAFLEEAQSRATAILQRANMVANPAWRSL
modifications: Pseudomonas
B3: S301A: mutated TriA variant of SEQ ID NO: 2 (protein)
chain: MQTLSIQHGTLVTMDQYRRVLGDSWVHVQDGRIVALGVHAESVPPPADRVIDARGKVVLPGFINAHTHVNQILLRGGPSHGRQLYDWLFNVLYPGQKAMRPEDVAVAVRLYCAEAVRSGITTINDNADSAIYPGNIEAAMAVYGEVGVRVVYARMFFDRMDGRIQGYVDALKARSPQVELCSIMEETAVAKDRITALSDQYHGTAGGRISVWPAPAITPAVTVEGMRWAQAFARDRAVMWTLHMAESDHDERLHWMSPAEYMECYGLLDERLQVAHCVYFDRKDVRLLHRHNVKVASQVVANAYLGSGVAPVPEMVERGMAVGIGTDDGNCNDSVNMIGDMKFMAHIHRAVHRDADVLTPEKILEMATIDGARSLGMDHEIGSIETGKRADLILLDLRHPQTTPHHHLAATIVFQAYGNEVDTVLIDGNVVMENRRLSFLPPERELAFLEEAQSRATAILQRANMVANPAWRSL
modifications: Pseudomonas
B4: Q298T: mutated TriA variant of SEQ ID NO: 2 (protein)
chain: MQTLSIQHGTLVTMDQYRRVLGDSWVHVQDGRIVALGVHAESVPPPADRVIDARGKVVLPGFINAHTHVNQILLRGGPSHGRQLYDWLFNVLYPGQKAMRPEDVAVAVRLYCAEAVRSGITTINDNADSAIYPGNIEAAMAVYGEVGVRVVYARMFFDRMDGRIQGYVDALKARSPQVELCSIMEETAVAKDRITALSDQYHGTAGGRISVWPAPAITPAVTVEGMRWAQAFARDRAVMWTLHMAESDHDERLHWMSPAEYMECYGLLDERLQVAHCVYFDRKDVRLLHRHNVKVASTVVSNAYLGSGVAPVPEMVERGMAVGIGTDDGNCNDSVNMIGDMKFMAHIHRAVHRDADVLTPEKILEMATIDGARSLGMDHEIGSIETGKRADLILLDLRHPQTTPHHHLAATIVFQAYGNEVDTVLIDGNVVMENRRLSFLPPERELAFLEEAQSRATAILQRANMVANPAWRSL
modifications: Pseudomonas
B5: Q298S: mutated TriA variant of SEQ ID NO: 2 (protein)
chain: MQTLSIQHGTLVTMDQYRRVLGDSWVHVQDGRIVALGVHAESVPPPADRVIDARGKVVLPGFINAHTHVNQILLRGGPSHGRQLYDWLFNVLYPGQKAMRPEDVAVAVRLYCAEAVRSGITTINDNADSAIYPGNIEAAMAVYGEVGVRVVYARMFFDRMDGRIQGYVDALKARSPQVELCSIMEETAVAKDRITALSDQYHGTAGGRISVWPAPAITPAVTVEGMRWAQAFARDRAVMWTLHMAESDHDERLHWMSPAEYMECYGLLDERLQVAHCVYFDRKDVRLLHRHNVKVASSVVSNAYLGSGVAPVPEMVERGMAVGIGTDDGNCNDSVNMIGDMKFMAHIHRAVHRDADVLTPEKILEMATIDGARSLGMDHEIGSIETGKRADLILLDLRHPQTTPHHHLAATIVFQAYGNEVDTVLIDGNVVMENRRLSFLPPERELAFLEEAQSRATAILQRANMVANPAWRSL
modifications: Pseudomonas
B6: S301V: mutated TriA variant of SEQ ID NO: 2 (protein)
chain: MQTLSIQHGTLVTMDQYRRVLGDSWVHVQDGRIVALGVHAESVPPPADRVIDARGKVVLPGFINAHTHVNQILLRGGPSHGRQLYDWLFNVLYPGQKAMRPEDVAVAVRLYCAEAVRSGITTINDNADSAIYPGNIEAAMAVYGEVGVRVVYARMFFDRMDGRIQGYVDALKARSPQVELCSIMEETAVAKDRITALSDQYHGTAGGRISVWPAPAITPAVTVEGMRWAQAFARDRAVMWTLHMAESDHDERLHWMSPAEYMECYGLLDERLQVAHCVYFDRKDVRLLHRHNVKVASQVVVNAYLGSGVAPVPEMVERGMAVGIGTDDGNCNDSVNMIGDMKFMAHIHRAVHRDADVLTPEKILEMATIDGARSLGMDHEIGSIETGKRADLILLDLRHPQTTPHHHLAATIVFQAYGNEVDTVLIDGNVVMENRRLSFLPPERELAFLEEAQSRATAILQRANMVANPAWRSL
modifications: Pseudomonas
B7: Q298N: mutated TriA variant of SEQ ID NO: 2 (protein)
chain: MQTLSIQHGTLVTMDQYRRVLGDSWVHVQDGRIVALGVHAESVPPPADRVIDARGKVVLPGFINAHTHVNQILLRGGPSHGRQLYDWLFNVLYPGQKAMRPEDVAVAVRLYCAEAVRSGITTINDNADSAIYPGNIEAAMAVYGEVGVRVVYARMFFDRMDGRIQGYVDALKARSPQVELCSIMEETAVAKDRITALSDQYHGTAGGRISVWPAPAITPAVTVEGMRWAQAFARDRAVMWTLHMAESDHDERLHWMSPAEYMECYGLLDERLQVAHCVYFDRKDVRLLHRHNVKVASNVVSNAYLGSGVAPVPEMVERGMAVGIGTDDGNCNDSVNMIGDMKFMAHIHRAVHRDADVLTPEKILEMATIDGARSLGMDHEIGSIETGKRADLILLDLRHPQTTPHHHLAATIVFQAYGNEVDTVLIDGNVVMENRRLSFLPPERELAFLEEAQSRATAILQRANMVANPAWRSL
modifications: Pseudomonas
B8: S301T: mutated TriA variant of SEQ ID NO: 2 (protein)
chain: MQTLSIQHGTLVTMDQYRRVLGDSWVHVQDGRIVALGVHAESVPPPADRVIDARGKVVLPGFINAHTHVNQILLRGGPSHGRQLYDWLFNVLYPGQKAMRPEDVAVAVRLYCAEAVRSGITTINDNADSAIYPGNIEAAMAVYGEVGVRVVYARMFFDRMDGRIQGYVDALKARSPQVELCSIMEETAVAKDRITALSDQYHGTAGGRISVWPAPAITPAVTVEGMRWAQAFARDRAVMWTLHMAESDHDERLHWMSPAEYMECYGLLDERLQVAHCVYFDRKDVRLLHRHNVKVASQVVTNAYLGSGVAPVPEMVERGMAVGIGTDDGNCNDSVNMIGDMKFMAHIHRAVHRDADVLTPEKILEMATIDGARSLGMDHEIGSIETGKRADLILLDLRHPQTTPHHHLAATIVFQAYGNEVDTVLIDGNVVMENRRLSFLPPERELAFLEEAQSRATAILQRANMVANPAWRSL
modifications: Pseudomonas

This data set is classed as biochemical. As to conditions: pH 7.2. Here is the method:
EXAMPLE 3: Protein Purification. TriA and variants thereof were produced in E. coli BL21(DE3) Gold (Agilent Technologies, Germany). Therefore E. coli was transformed with appropriate pET24d N-HIS tag expression vector and chaperone plasmid pGro7 (chaperones groEL and groES). Bacterial strains were grown at 30° C. in 100 mL LB for 20 h and protein expression induced with 0.1 mM IPTG at 25° C. for 20 hs. Cells were harvested by centrifugation at 3000 rpm at 4° C. for 20 min, resuspended in Bug Buster protein extraction reagent (Novagen, Germany) according to manufactures instructions. Lysates were clarified by centrifugation. Samples of bovine serum albumin ([…]) were loaded onto each gel analyzed by densitometry to provide an internal standard. Protein determinations were verified using Coomassie protein assay dye, according to manufactures instruction (Thermo Scientific; USA). The HIS-tagged enzymes were purified by metal ion affinity chromatography using Ni-IDA 1000 kit (Macherey-Nagel, Germany) following manufactures instructions. Protein purity was accessed by SDS-PAGE using NuPAGE Novex 4-12% Bis-Tris pre-cast gels (Life Technologies; USA) stained with Coomassie Brilliant Blue (Serva, Germany). Protein concentrations were estimated by measuring absorbance at 280 nm using Lambda Bio+(Perkin Elmer, USA). EXAMPLE 4: Enzyme kinetics. Resting cell suspension containing triA gene were incubated with various azines, melamine and atrazine and the culture filtrate was analyzed by UPLC-HR-MS. Substrates were obtained either from Sigma-Aldrich or synthesized internally. Synthetic standards and enzyme reaction products were analysed by UPLC-HR-MS (Thermo/Dionex UPLC UltiMate3000 coupled to a QExactive high resolution mass spectrometer). A Waters Acquity HSS T3 column (2.1 mm; 100 mm; […]) was used with a mobile phase water/acetonitrile (0.1% formic acid) with a flow rate of […]. Enzymes were used solved 25 mM sodium phosphate buffer (pH 7.2) with substrate concentration in the range of 1 nM to 10 nM at 30° C. Over time, the original azine peak disappeared whereas the formed OH-Metabolite (reaction product) increased. The product was identified by determination of the exact formula and by analysis of the accurate MS-MS fragments. Moreover for some of the formed products authentic standards were co-eluted. Degradation in % was calculated against the cells harboring the empty vector as control.
For B1, the “Degradation in % of 6-cyclopentyl-N4-(2,3,4,5,6-pentafluorophenyl)-1,3,5-triazine-2,4-diamine” value was 2% and the “Degradation in % of Melamine” value is recorded as 1%.
Take B2: the “Degradation in % of 6-cyclopentyl-N4-(2,3,4,5,6-pentafluorophenyl)-1,3,5-triazine-2,4-diamine” value was 23% and the “Degradation in % of Melamine” value worked out at 100%.
In the same order, the values of B3 are 6% and 0%.
As to B4, the “Degradation in % of 6-cyclopentyl-N4-(2,3,4,5,6-pentafluorophenyl)-1,3,5-triazine-2,4-diamine” value is 0% and the “Degradation in % of Melamine” value came to 63%.
In the same order, the values of B5 are 0% and 83%.
In the same order, the values of B6 are 0% and 0%.
Take B7: the “Degradation in % of 6-cyclopentyl-N4-(2,3,4,5,6-pentafluorophenyl)-1,3,5-triazine-2,4-diamine” value worked out at 0% and the “Degradation in % of Melamine” value came to 5%.
In the same order, the values of B8 are 1% and 0%.
